{"source": "paper PMC9161685", "target": "SARS-CoV-2 main protease (M^pro) triple mutant (Cys85Ser|Cys156Ser|Cys300Ser), (His)6-tagged (SARS-CoV-2)", "assay": "SEC-MALS", "data": [{"substance": "SARS-CoV-2 main protease (M^pro) triple mutant (Cys85Ser|Cys156Ser|Cys300Ser), (His)6-tagged (enzyme)", "values": [{"measurement": "stoichiometry N", "value": 2}]}]}
